What was measured:
[1] = tested on: GFP+F10-snail+ tumor cells; experiment: In vivo drug efficacy of each anti-FSTL1 antibody clone, GFP+F10-snail+ tumor model (Example 32); set-up: species or system mouse; settings: intraperitoneal 10 mg/kg on days 4 and 7; vs control antibody
Experimental: • Day 0: transplantation of GFP+F10-snail+ tumor cells (3×10^5 cells subcutaneously & 2×10^4 cells intravenously) • Day 4: intraperitoneal administration of the antibody (first dose, 10 mg/kg) • Day 7: intraperitoneal administration of the antibody (second dose, 10 mg/kg)
Subcutaneous tumor was measured 4, 7, 10, 14, 17, 20, and 23 days after tumor cell transplantation.
Experiment Group (n=5) Control IgG (anti-DNP mAb) • #6-55 • #7 • #10 • #13 • #33
• Day 0: transplantation of GFP+F10-snail+ tumor cells (3×10^5, cells subcutaneously & 2×10^4 cells intravenously) • Day 4: intraperitoneal administration of the antibody (first dose, 10 mg/kg) • Day 7: intraperitoneal administration of the antibody (second dose, 10 mg/kg)

[2] = molecular target: T1, human FSTL1 (Homo sapiens, UniProt Q12841); experiment: ELISA binding activity of purified antibody against human FSTL1 (Example 2); settings: FIG. 1B/31B
T1 construct: AAA linker + 10xHis (C); made in house; host or cells: Expi293 (transient expression; purified from culture supernatant on HisPur Cobalt Resin)
T1 sequence (Q12841 with tags, fused parts or gaps): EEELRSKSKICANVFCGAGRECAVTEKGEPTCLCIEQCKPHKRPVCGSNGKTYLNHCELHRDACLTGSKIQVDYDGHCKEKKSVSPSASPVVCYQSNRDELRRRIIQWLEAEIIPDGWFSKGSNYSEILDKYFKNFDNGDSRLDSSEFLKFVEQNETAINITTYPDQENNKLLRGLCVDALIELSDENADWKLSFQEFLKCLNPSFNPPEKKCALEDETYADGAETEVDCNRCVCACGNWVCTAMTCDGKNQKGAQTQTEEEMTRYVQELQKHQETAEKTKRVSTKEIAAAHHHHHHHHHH
Experimental: (§1) The reactivity of the obtained antibody clones described above with FSTL1 was evaluated by ELISA under the following conditions.
(Table 2 ELISA conditions for binding activity evaluation of purified antibody) Antibodies used: anti-dinitrophenyl (DNP) antibody (negative control), #5-2, #5-3, #5-8, #5-10, #5-43, #6-55, and #7-34
FIGS. 2 and 3 show results of evaluating binding activity under the condition of Table 3 as to clones differing in screening and antibody purification timings.
(§2) Antibodies used: anti-dinitrophenyl (DNP) antibody (negative control), #5-2, #5-3, #5-8, #5-10, #5-43, #6-55, and #7-34
FIGS. 32 and 33 show results of evaluating binding activity under the condition of Table 3 as to clones differing in screening and antibody purification timings.

[3] = molecular target: T1, human FSTL1; experiment: ELISA, binding activity of purified antibody against human FSTL1 (Example 2); settings: cross reactivity test; antibody diluted from 1000 ng/ml
Experimental: as §1, §2
FIGS. 64 and 65 show results of evaluating binding activity under the condition of Table 3 as to clones differing in screening and antibody purification timings.

[4] = molecular target: T2, FSTL1 (Homo sapiens, UniProt Q12841); experiment: MSC induction inhibition test using mouse bone marrow cells stimulated with FSTL1 (Example 27); assay type: cell-based; set-up: purchased R&D Systems, Inc. 1694-FN-050; settings: FSTL1 20 ng/mL, antibody 10 μg/mL, 8 days
T2 sequence (Q12841 21-308): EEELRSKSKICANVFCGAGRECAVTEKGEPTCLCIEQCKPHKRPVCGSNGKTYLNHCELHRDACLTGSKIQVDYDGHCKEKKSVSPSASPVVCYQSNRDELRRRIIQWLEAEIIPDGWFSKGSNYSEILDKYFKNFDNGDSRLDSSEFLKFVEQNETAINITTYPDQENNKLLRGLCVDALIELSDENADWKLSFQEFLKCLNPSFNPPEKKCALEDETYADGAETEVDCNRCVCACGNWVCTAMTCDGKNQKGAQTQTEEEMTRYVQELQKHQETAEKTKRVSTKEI
Experimental: (§3) In this Example, the inhibitory activity of the anti-FSTL1 antibody was confirmed in an experimental system of mesenchymal stem cell induction while a FSTL1 inhibitory effect on MSC expansion induced not only by FSTL1 but by Snail+ tumor cells was also evaluated. For specific operation, each antibody (10 μg/mL) was added to systems in which C57/BL/6 mouse-derived bone marrow cells were stimulated with FSTL1 (20 ng/mL) or a culture supernatant of tumor cells. After culture for 8 days under stimulation, cell fraction CD45(−) cells (MSCs) containing MSCs at a high rate and CD45(−)CD146(+)ALCAM(+) cells (sMSCs) increasing in number in association with cancer metastasis were analyzed by flow cytometry in the same way as in Example 14, and the number of cells per culture system was counted. In this Example, mouse immunoglobulin manufactured by BioLegend, Inc. (4401408, Cone MG1-45) was used as a control antibody.
as §3, with “(#401408,” for “(4401408,”

B1: #6-55: chicken-mouse chimeric anti-FSTL1 antibody clone; variable regions SEQ ID NO: 783 (light), 785 (heavy) (antibody, V domains shown)
VH: AVTLDESGGGLQTPGGALSLVCKGSGFTFTSVTMQWVRQAPGKGLEWVASVCSGSSTYYAPAVKGRATISRDNGQSTVRLQLSNLRPEDTGTYYCAKIAGRARWSCTSAAYNIDAWGHGTEVIVSS
VL: ASTQPSSVSAIPGETVKITCSGGGNNYGWYQQRSPGSAPVTVIYYNDNRPSNIPSRFSGSTSGSTSTLTITGVQADDEAIYYCGSWDSNTDSGIFGAGTTLTVL
modifications: mouse constant regions
- mouse survival period (life-prolonging effect) [1]: statistically significant life-prolonging effect
- suppressive activity against subcutaneous tumor growth [1]: statistically significant suppressive activity
- binding activity against human FSTL1 [2]: specific and equivalently strong binding activity
- binding activity against human FSTL1 [3]: specific and equivalently strong binding activity

B2: #7-34: chicken-mouse chimeric anti-FSTL1 antibody clone; variable regions SEQ ID NO: 787 (light), 789 (heavy) (antibody, V domains shown)
VH: AVTLDESGGGLQTPGGGLSLVCKASGFTFSSVTMQWVRQAPGKGLEWVASICSGSSTYYGPAVKGRATISRDNGQNTVRLQLNNLRAEDTATYYCAKIVGRGRWSCTSAAYNIDAWGHGTEVIVSS
VL: ASTQPSSVSANPGETVKITCSGGGNNYGWYQQKSPGSAPVTVIYYNNNRPSNIPSRFSGSTSGSTSTLTITGVQAEDEAVYYCGSYEGSTDSGIFGAGTTLTVL
modifications: mouse constant regions
- binding activity against human FSTL1 [2]: specific and equivalently strong binding activity
- binding activity against human FSTL1 [3]: specific and equivalently strong binding activity

B3: #13: chicken-mouse chimeric anti-FSTL1 antibody clone; variable regions SEQ ID NO: 815 (light), 817 (heavy) (antibody, V domains shown)
VH: AVTLDESGGGLQTPGGGLSLVCKASGFTFSSVTMQWVRQAPGKGLEWVASICSGSSTYYGPAVKGRATISRDNGQNTVRLQLNNLRAEDTATYYCAKIVGRGRWSCTSAAYNIDAWGHGTEVIVSS
VL: ASTQPSSVSANPGETVKITCSGGGNNYGWYQQKSPGSAPVTVIYNNNNRPSNIPSRFSGSKSGSTNTLTITGVQAEDEAVYYCGSYDSSSDSGIFGAGTTLTVL
modifications: mouse constant regions
- inhibitory effect in the MSC induction inhibition test (CD45(−) MSCs and sMSCs, flow cytometry) [4]: strong inhibitory effect equivalent to or higher than that of #6-55

B4: #33: chicken-mouse chimeric anti-FSTL1 antibody clone; variable regions SEQ ID NO: 823 (light), 825 (heavy) (antibody, V domains shown)
VH: AVTLDESGGGLQTPGGGLSLVCKASGFTFSSFNMNWVRQAPGKGLEYVAEISGTGSSTYYGSAVKGRATISRDNGQSTVRLQLNNLRAEDTATYFCARGDGAYSIDAWGHGTEVIVSS
VL: ASTQPSSVSANPGETVEITCSGDSSYYGWFQQKSPGSAPVTVIYDNTNRPSDIPSRFSGSKSGSTATLTITGVRAEDEAVYYCGGYDSSTYDGIFGAGTTLTVL
modifications: mouse constant regions
- mouse survival period (life-prolonging effect) [1]: therapeutic effects equal to or higher than those of #6-55
- MSC induction inhibitory activity, reproducibility confirmed [4]: high MSC induction inhibitory activity equivalent to or higher than that of #6-55
- inhibitory effect in the MSC induction inhibition test (CD45(−) MSCs and sMSCs, flow cytometry) [4]: strong inhibitory effect equivalent to or higher than that of #6-55

Source: patent US20180021429A1, “ANTICANCER AGENTS OR ANTIMETASTATIC AGENTS USING FSTL1 AND COMBINATION DRUG THEREOF” (PHARMA FOODS INTERNATIONAL CO., LTD., priority 2015, published 2018)
